Source: IntAct's records for PubMed 19684601

B1: Myocyte-specific enhancer factor 2A (Homo sapiens), Q02078-1 (parent)
chain: MGRKKIQITRIMDERNRQVTFTKRKFGLMKKAYELSVLCDCEIALIIFNSSNKLFQYASTDMDKVLLKYTEYNEPHESRTNSDIVEALNKKEHRGCDSPDPDTSYVLTPHTEEKYKKINEEFDNMMRNHKIAPGLPPQNFSMSVTVPVTSPNALSYTNPGSSLVSPSLAASSTLTDSSMLSPPQTTLHRNVSPGAPQRPPSTGNAGGMLSTTDLTVPNGAGSSPVGNGFVNSRASPNLIGATGANSLGKVMPTKSPPPPGGGNLGMNSRKPDLRVVIPPSSKGMMPPLSEEEELELNTQRISSSQATQPLATPVVSVTTPSLPPQGLVYSAMPTAYNTDYSLTSADLSALQGFNSPGMLSLGQVSAWQQHHLGQAALSSLVAGGQLSQGSNLSINTNQNISIKSEPISPPRDRMTPSGFQQQQQQQQQQQPPPPPQPQPQPPQPQPRQEMGRSPVDSLSSSSSSYDGSDREDPRGDFHSPIVLGRPPNTEDRESPSVKRMRMDAWVT

Variants of: B1
Settings: with sumo2_human SUMO2, P61956
sumo2_human SUMO2, P61956, sequence (P61956 whole entry): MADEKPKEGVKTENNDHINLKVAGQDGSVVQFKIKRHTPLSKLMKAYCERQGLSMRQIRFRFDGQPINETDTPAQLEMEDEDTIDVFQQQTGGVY

Row | Variant | effect of a mutation on the interaction
1 | S408A | disrupting interaction
2 | K403R | disrupting interaction
